Residue numbers refer to the chain shown, from its start.
T1: LAG-3 extracellular domain with a Flag tag (human, UniProt P18627 23-434)
T1 construct: also called LAG-3-Flag; LAG-3-Flag antigen
T1 sequence: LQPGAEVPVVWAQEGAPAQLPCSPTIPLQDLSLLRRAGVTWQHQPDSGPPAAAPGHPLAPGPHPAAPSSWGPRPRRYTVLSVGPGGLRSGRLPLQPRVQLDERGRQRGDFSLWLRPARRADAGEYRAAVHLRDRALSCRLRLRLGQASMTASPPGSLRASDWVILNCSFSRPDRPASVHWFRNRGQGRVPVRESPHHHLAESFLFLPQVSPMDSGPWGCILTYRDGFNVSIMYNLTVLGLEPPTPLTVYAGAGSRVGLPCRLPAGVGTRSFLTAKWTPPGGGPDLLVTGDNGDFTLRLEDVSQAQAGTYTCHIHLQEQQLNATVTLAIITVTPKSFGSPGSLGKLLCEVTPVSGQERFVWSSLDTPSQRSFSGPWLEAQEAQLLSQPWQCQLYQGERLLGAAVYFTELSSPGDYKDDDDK

T2: Fusion protein of LAG-3 extracellular region and mIgG2a Fc (human)
T2 construct: Limits of the signal peptide are marked only by lost underlining; also called LAG-3-mFc; LAG-3-mFc fusion protein
T2 chain: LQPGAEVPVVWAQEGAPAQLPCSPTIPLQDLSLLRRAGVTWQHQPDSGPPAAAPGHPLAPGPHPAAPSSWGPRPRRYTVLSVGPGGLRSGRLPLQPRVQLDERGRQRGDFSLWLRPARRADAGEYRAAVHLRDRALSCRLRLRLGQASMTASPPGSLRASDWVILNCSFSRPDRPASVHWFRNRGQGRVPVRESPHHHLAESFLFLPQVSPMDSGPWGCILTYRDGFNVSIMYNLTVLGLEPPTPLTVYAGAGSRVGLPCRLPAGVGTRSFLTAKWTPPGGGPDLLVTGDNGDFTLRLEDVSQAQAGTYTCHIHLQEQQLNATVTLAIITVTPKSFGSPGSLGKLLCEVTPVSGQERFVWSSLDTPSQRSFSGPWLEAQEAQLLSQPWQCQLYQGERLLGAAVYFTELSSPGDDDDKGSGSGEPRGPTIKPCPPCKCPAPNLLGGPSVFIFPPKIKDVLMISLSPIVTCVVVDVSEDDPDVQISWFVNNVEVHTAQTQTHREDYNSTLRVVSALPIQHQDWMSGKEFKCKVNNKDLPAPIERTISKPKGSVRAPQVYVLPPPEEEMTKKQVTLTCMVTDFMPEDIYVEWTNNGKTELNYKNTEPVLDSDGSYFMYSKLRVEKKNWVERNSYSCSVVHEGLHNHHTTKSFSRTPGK

B1: Hu303-004 (antibody, human IgG4 S228P, kappa, V domains shown)
VH: QVQLVQSGAEVKKPGASVKVSCKASGYTFTDYYMNWVRQAPGQRLEWMGVINPYNGDTAYNQKFKGRVTITRDTSASTAYMELSSLRSEDTAVYYCARDDGYYDYYFDVWGQGTTVTVSS
VL: DIQMTQSPSSLSASVGDRVTITCRASQDIGSRLNWYQQKPGKAPKLLIYATSTLDSGVPSRFSGSGSGTDFTLTISSLQPEDFATYYCLQLASSPPTFGGGTKVEIKR
notes: Humanized mAb303
B2: Hu303-005 (antibody, human IgG4 S228P, kappa, V domains shown)
VH: B1 VH
VL: B1 VL with L46R, G66R
notes: also called LAG-3 antibody Hu303-005; LAG3 antibody Hu303-005
B3: Hu303-014 (antibody, human IgG4 S228P, kappa, V domains shown)
VH: B1 VH with F29L, R72V, T74K, A97T
VL: B1 VL
notes: Humanized mAb303
B4: Hu303-006 (antibody, human IgG4 S228P, kappa, V domains shown)
VH: B1 VH
VL: B1 VL with L46R, S60K, G66R
notes: Humanized mAb303
B5: Hu303-016 (antibody, human IgG4 S228P, kappa, V domains shown)
VH: B1 VH with F29L, R72V, T74K, A97T
VL: B1 VL with L46R, S60K, G66R
notes: Humanized mAb303
B6: Hu303-009 (antibody, human IgG4 S228P, kappa, V domains shown)
VH: B1 VH with R72V, T74K, A97T
VL: B1 VL
notes: Humanized mAb303
B7: Hu229-014 (antibody, human IgG4 S228P, kappa, V domains shown)
VH: QVQLVQSGSELKKPGASVKVSCKASGYTFTTSGMSWVKQAPGQGLKWMGWINTYSGVPTYADDFKGRFVFSLDTSVSTAYLQISSLKAEDTATYYCARDNYDARDVYYYAMDYWGQGTTVTVSS
VL: DIQMTQSPSSLSASVGDRVTITCRASENIYSNLAWYQQKPGKAPKLLVYAATNLADGVPSRFSGSGSGTQYTLTISSLQPEDFATYYCQHFWITPWTFGGGTKVEIKR
notes: Humanized mAb229
B8: Hu229-009 (antibody, human IgG4 S228P, kappa, V domains shown)
VH: B7 VH with K38R, T93V
VL: B7 VL with Q70D
notes: Humanized mAb229
B9: Hu229-015 (antibody, human IgG4 S228P, kappa, V domains shown)
VH: B7 VH
VL: B7 VL with A43S
notes: Humanized mAb229
B10: Hu229-019 (antibody, human IgG4 S228P, kappa, V domains shown)
VH: B7 VH with Y95F
VL: B7 VL with A43S
notes: Humanized mAb229
B11: Hu229-010 (antibody, human IgG4 S228P, kappa, V domains shown)
VH: B7 VH with K38R, T93V
VL: B7 VL
notes: Humanized mAb229
B12: Hu229-017 (antibody, human IgG4 S228P, kappa, V domains shown)
VH: B7 VH with Y95F
VL: B7 VL with Q70D
notes: Humanized mAb229
B13: Hu303-022 (antibody, human IgG4 S228P, kappa, V domains shown)
VH: B1 VH with F29L, M48I, V68A, I70L, R72V, T74K, A97T
VL: B1 VL with Y36L, P44F, L46R, S60K, G66R
notes: Humanized mAb303
B14: Hu303-023 (antibody, human IgG4 S228P, kappa, V domains shown)
VH: B1 VH with F29L, M48I, V68A, I70L, R72V, T74K, A97T
VL: B1 VL with I21L, Y36L, K42G, P44F, L46R, S60K, G66R, T85D
notes: Humanized mAb303
B15: Hu229-016 (antibody, human IgG4 S228P, kappa, V domains shown)
VH: B7 VH with Y95F
VL: B7 VL with V48I, Q70D, Y71F
notes: Humanized mAb229
B16: Hu229-011 (antibody, human IgG4 S228P, kappa, V domains shown)
VH: B7 VH with K38R, T93V
VL: B7 VL with A43S
notes: Humanized mAb229

Target: T1, LAG-3 extracellular domain with a Flag …
Test: SPR (Biacore), antibody captured on anti-human capture chip, LAG-3-Flag in flow
From the text: 2. […] Then, the LAG-3-Flag antigen (produced in-house, SEQ ID NO:1) was flowed through the surface of the biochip, and the reaction signal was detected real time using a Biacore instrument to obtain the binding and dissociation curves, the value of affinity was obtained by fitting, see table 10 below. After each cycle of dissociation was finished in the experiment, the biochip was washed and regenerated with a regeneration solution provided in the human anti-capture kit.

Kd | Binder
1.06 nM | B1
0.0715 nM | B2
0.491 nM | B3
0.0753 nM | B4
0.0748 nM | B5
0.943 nM | B6
0.0374 nM | B7
0.0488 nM | B8
0.0459 nM | B9
0.0729 nM | B10
0.0382 nM | B11
0.0671 nM | B12

Target: T3, Fusion protein of LAG-3 extracellular region and hIgG1 Fc (human)
T3 construct: Limits of the signal peptide are marked only by lost underlining; also called LAG-3-Fc; LAG-3-Fc fusion protein
Test: competition: biotin-LAG-3-Fc binding to fixed Daudi cells, antibody titrated
Protocol: Daudi cells (human leukemia cells, purchased from the cell bank in Chinese Academy of Sciences) were seeded in 96-well plate with a density of 3×10⁵/well. After centrifugation at 1000 rpm, the supernatant was discarded and then the plate was fixed with 4% PFA for 30 min at room temperature. The plate was washed 4 times with PBS after discarding the fixed solution, and the plate was blocked with 200 μl/well of blocking solution containing 5% skim milk (Bright Dairy, skim milk powder) diluted in PBS, and incubated at 37° C. for 2.5 hours. After blocking, the blocking solution was discarded and the plate was washed 5 times with PBST buffer (pH7.4 PBS containing 0.05% tween-20), added with 50 μl/well mixture of biotin-labeled (Biotin labeling kit, Dojindo Chemical, Cat No. LK03) LAG-3-Fc fusion protein (produced in-house, SEQ ID NO: 3) and gradient concentrations of the antibody to be tested, wherein the biotin-labeled LAG-3-Fc fusion protein has been diluted with sample diluent (PH7.4 PBS containing 1% BSA) at a final concentration of 0.4 μg/ml, and pre-mixed for an hour, then the plate was incubated at 37° C. for 1 h. The reaction solution was discarded and the plate was washed 5 times with PBST after incubation, 50 μl/well of HRP-labeled Streptavidin (Sigma, Cat No. 52438) diluted with sample diluent was added, and the plate was incubated at 37° C. for 1 h. After washing the plate 5 times with PBST, 50 μl/well of TMB chromogenic substrate (KPL, Cat No. 52-00-03) was added to each well, and incubated at room temperature for 5-15 min, the reaction was stopped by the addition of 50 μl 1M H₂SO₄ to each well. The OD value at a wavelength of 450 nm was read on NOVOStar microplate reader, and then the activity of the LAG-3 antibody in blocking the binding of the antigen to Daudi cells was calculated.

T3 sequence (chain, as listed by the source limits assumed): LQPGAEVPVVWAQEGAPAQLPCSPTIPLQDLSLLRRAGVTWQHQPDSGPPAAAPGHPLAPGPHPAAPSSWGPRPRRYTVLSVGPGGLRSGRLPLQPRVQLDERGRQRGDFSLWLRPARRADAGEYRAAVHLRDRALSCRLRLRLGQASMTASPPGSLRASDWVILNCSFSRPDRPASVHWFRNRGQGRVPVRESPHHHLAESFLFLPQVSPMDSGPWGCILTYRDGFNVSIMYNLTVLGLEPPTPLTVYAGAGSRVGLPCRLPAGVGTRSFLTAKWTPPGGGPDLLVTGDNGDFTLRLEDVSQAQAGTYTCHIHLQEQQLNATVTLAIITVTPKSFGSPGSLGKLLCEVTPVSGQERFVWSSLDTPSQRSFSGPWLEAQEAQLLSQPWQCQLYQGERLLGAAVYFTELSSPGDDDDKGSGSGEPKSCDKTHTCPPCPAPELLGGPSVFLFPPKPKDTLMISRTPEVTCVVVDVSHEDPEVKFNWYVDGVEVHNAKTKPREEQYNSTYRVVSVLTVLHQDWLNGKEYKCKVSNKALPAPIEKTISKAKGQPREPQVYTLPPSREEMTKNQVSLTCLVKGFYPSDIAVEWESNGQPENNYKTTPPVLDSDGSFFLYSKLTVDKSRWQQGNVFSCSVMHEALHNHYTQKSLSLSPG

IC50 | Binder
0.502 nM | B1
0.622 nM | B2
0.467 nM | B3
0.36 nM | B13
0.821 nM | B4
0.369 nM | B14
0.395 nM | B5
0.417 nM | B6
0.718 nM | B7
0.559 nM | B8
0.808 nM | B9
0.875 nM | B15
0.289 nM | B10
0.453 nM | B11
0.566 nM | B16
0.239 nM | B12

Target: T2, Fusion protein of LAG-3 extracellular …
Test: ELISA, LAG-3-mFc captured by anti-mouse Fc on plate (which fusion: inferred)
From the text: The binding ability of anti-LAG-3 antibody to human LAG-3 protein was detected by ELISA assay. LAG-3 fusion protein with Fc or mFc tag was immobilized into 96-well microtiter plate by binding to anti-Fc or anti-mFc antibody coated on the microtiter plate, the strength of the signal after the addition of the antibody was used to determine the binding activity of the antibody to LAG-3, the specific experimental method is as follows.
The goat anti-human Fc antibody (Jackson Immuno Research, Cat No. 109-005-008) or goat anti-mouse Fc antibody (Sigma, Cat No. M3534-1ML) was diluted to a concentration of 2 μg/ml with PBS buffer at pH 7.4 (Sigma, Cat No. P4417-100TAB), and added to a 96-well plate at a volume of 50 μl/well and then, the plate was incubated in the incubator at 37° C. for 2 hours. After discarding the liquid, the plates were blocked with 200 μl/well of blocking solution containing 5% skim milk (Bright Dairy, skim milk powder) in PBS, and incubated in the incubator at 37° C. for 2.5 hours or overnight at 4° C. (16-18 hours). After blocking, the blocking solution was discarded and the plate was washed 5 times with PBST buffer (PH7.4 PBS containing 0.05% tween-20). LAG-3-Fc fusion protein (SEQ ID NO:3, produced in-house) or LAG-3-mFc fusion protein (SEQ ID NO: 4, produced in-house) was diluted with sample diluent (PH7.4 PBS containing 1% BSA) to 1 μg/ml and was added to each well, 50 μl/well. Then the plate was incubated in the incubator at 37° C. for 1 h or overnight at 4° C. After incubation, the reaction solution in the plate was discarded, and the plate was washed with PBST for 6 times, and then was added with 50 μl/well of various concentrations of antibodies to be tested (hybridoma purified antibody or humanized antibody) which have been diluted with sample diluent, and the plate was incubated at 37° C. for 1 h. The plates was washed 5 times with PBST after incubation, and was added with 100 μl/well of goat anti-mouse (Jackson Immuno Research, Cat No. 115-035-003) or goat anti-human secondary antibody (Jackson Immuno Research, Cat No. 109-035-003) labeled with HRP, diluted in sample diluent, and the plate was incubated at 37° C. for 1 h.

EC50 | Binder
0.278 nM | B1
0.309 nM | B2
0.232 nM | B3
0.145 nM | B13
0.288 nM | B4
0.152 nM | B14
0.161 nM | B5
0.316 nM | B6
0.153 nM | B7
0.152 nM | B8
0.156 nM | B9
0.154 nM | B15
0.068 nM | B10
0.174 nM | B11
0.201 nM | B16
0.048 nM | B12

From patent US20220031842A1 (JIANGSU HENGRUI MEDICINE, published 2022)
